# Measurements as given in the supplement of paper PMC7877785.
# ± gives the uncertainty stated by the source.
# Test: self-splicing fitness, log relative to wild type (ln ratio); higher = more splicing; Tetrahymena group I intron in knt gene, E. coli kanamycin selection, DiMSum; sequences stand for … in CUCUCU…GGAGGGAAAAGUUAUCAGGCAUGCACCUGGUAGCUAGUCUUUAAACCAAUAGAUUGCAUCGGUUUAAAAGGCAAGACCGUCAAAUUGCGGGAAAGGGGUCAACAGCCGUUCAGUACCAAGUCUCAGGGGAAACUUUGAGAUGGCCUUGCAAAGGGUAUGGUAAUAAGCUGACGGACAUGGUCCUAACCACGCAGCCAAGUCCUAAGUCAACAGAUCUUCUGUUGAUAUGGAUGCAGUUCACAGACUAAAUGUCGGUCGGGGAAGAUGUAUUCUUCUCAUAAGAUAUAGUCGGACCUCUCCUUAAUGGGAGCUAGCGGAUGAAGUGAUGCAACACUGGAGCCGCUGGGAACUAAUUUGUAUGCGAAAGUAUAUUGAUUAGUUUUGGAGUACUCGUGGUCG
# Outline: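 The eight P1ex-region nucleotides of an intron in the knt kanamycin-resistance gene on pET-22b(+) were all randomised and the library put into E. coli BL21(DE3). Six replicate transformations were grown overnight at 37°C or 30°C on LB agar with or without 25 μg/mL kanamycin, together with 100 μg/mL carbenicillin, 50 μM IPTG and 0.2% rhamnose. Colonies were pooled and amplicon-sequenced on an Illumina HiSeq 2500. Fitness from DiMSum is the error-weighted combination of wild-type-normalised replicate fold changes, kanamycin over none.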
Sequence,self-splicing fitness (ln) (30 °C),self-splicing fitness (ln) (37 °C)
ACUUAGCAAUAUUACGACCU,-0.101 ± 0.16,-0.219 ± 0.2
ACUUAGCAAUAUUACGACUU,-0.0888 ± 0.085,-0.156 ± 0.1
ACUUAGCAAUAUUACGAGGA,-1.87 ± 0.16,-1.66 ± 0.23
ACUUAGCAAUAUUACGAUGA,-0.609 ± 0.094,-1.2 ± 0.1
ACUUAGCAAUAUUACGCCGA,-2.94 ± 0.21,-1.35 ± 0.15
ACUUAGCAAUAUUACGCCGU,-2.28 ± 0.24,-1.11 ± 0.23
ACUUAGCAAUAUUACGCGAC,-2.91 ± 0.13,-2.06 ± 0.17
ACUUAGCAAUAUUACGCUAG,-2.35 ± 0.11,-1.72 ± 0.12
ACUUAGCAAUAUUACGGAAA,-2.19 ± 0.27,-2.09 ± 0.26
ACUUAGCAAUAUUACGGAAU,-2.99 ± 0.17,-2.13 ± 0.2
ACUUAGCAAUAUUACGGACG,-1.59 ± 0.1,-0.553 ± 0.12
ACUUAGCAAUAUUACGGCAC,-1.79 ± 0.11,-1.07 ± 0.14
ACUUAGCAAUAUUACGGCCC,-1.01 ± 0.34,-0.451 ± 0.29
ACUUAGCAAUAUUACGGCGC,-0.406 ± 0.11,0.119 ± 0.15
ACUUAGCAAUAUUACGGCUG,-1.32 ± 0.062,-0.174 ± 0.082
ACUUAGCAAUAUUACGGGAU,-2.08 ± 0.11,-0.352 ± 0.098
ACUUAGCAAUAUUACGGGUU,-3.42 ± 0.19,-3.29 ± 0.3
ACUUAGCAAUAUUACGUAAG,-0.131 ± 0.081,-0.844 ± 0.1
ACUUAGCAAUAUUACGUACA,-1.84 ± 0.17,-0.763 ± 0.15
ACUUAGCAAUAUUACGUCUU,-0.647 ± 0.084,-4.56e-06 ± 0.099
ACUUAGCAAUAUUACGUGGU,-3.62 ± 0.21,-2.26 ± 0.17
ACUUAGCAAUAUUACGUUCC,-2.16 ± 0.31,-2.04 ± 0.44
AGAAAGCAAUAUUACGACGA,-0.322 ± 0.13,0.0397 ± 0.12
AGAAAGCAAUAUUACGAUUU,-0.00992 ± 0.078,0.286 ± 0.11
AGAAAGCAAUAUUACGCAGA,-2.03 ± 0.14,-1.72 ± 0.13

Sequence,self-splicing fitness (ln) (30 °C),self-splicing fitness (ln) (37 °C)
AGAAAGCAAUAUUACGCGGU,-3.13 ± 0.17,-1.92 ± 0.21
AGAAAGCAAUAUUACGCUGC,-2.38 ± 0.2,-1.52 ± 0.23
AGAAAGCAAUAUUACGCUUA,-1.63 ± 0.11,-0.632 ± 0.087
AGAAAGCAAUAUUACGGAAG,-2.64 ± 0.19,-1.71 ± 0.22
AGAAAGCAAUAUUACGGAGU,-2.55 ± 0.11,-1.11 ± 0.11
AGAAAGCAAUAUUACGGGCG,-0.886 ± 0.1,-0.328 ± 0.12
AGAAAGCAAUAUUACGGUAA,-2.66 ± 0.25,-0.265 ± 0.14
AGAAAGCAAUAUUACGGUCU,-1.11 ± 0.082,-0.58 ± 0.09
AGAAAGCAAUAUUACGUAAU,-1.6 ± 0.087,-1.27 ± 0.12
AGAAAGCAAUAUUACGUUGA,-2.09 ± 0.14,-1.23 ± 0.14
AGAAAGCAAUAUUACGUUGU,-4.11 ± 0.14,-1.88 ± 0.099
AGACAGCAAUAUUACGAAAU,-2.88 ± 0.17,-1.43 ± 0.14
AGACAGCAAUAUUACGAAUA,-2.38 ± 0.24,-1.62 ± 0.19
AGACAGCAAUAUUACGACAC,-1 ± 0.11,-0.662 ± 0.14
AGACAGCAAUAUUACGACCA,-0.623 ± 0.11,-0.823 ± 0.13
AGACAGCAAUAUUACGAGAG,-4.6 ± 0.34,-2.12 ± 0.17
AGACAGCAAUAUUACGCCAA,-2.35 ± 0.15,-1.1 ± 0.12
AGACAGCAAUAUUACGCGAU,-2.68 ± 0.14,-1.29 ± 0.15
AGACAGCAAUAUUACGGAAC,–,-1.4 ± 0.22
AGACAGCAAUAUUACGGACG,-1.14 ± 0.066,-0.531 ± 0.071
AGACAGCAAUAUUACGGACU,-0.583 ± 0.068,-0.3 ± 0.087
AGACAGCAAUAUUACGGCAC,-0.629 ± 0.086,-1.09 ± 0.094
AGACAGCAAUAUUACGGCGC,-0.893 ± 0.092,-0.134 ± 0.12
AGACAGCAAUAUUACGGCUG,-2.93 ± 0.14,-2.34 ± 0.19
AGACAGCAAUAUUACGGCUU,-0.243 ± 0.094,0.564 ± 0.14

Sequence,self-splicing fitness (ln) (30 °C),self-splicing fitness (ln) (37 °C)
AGACAGCAAUAUUACGGUCG,-1.02 ± 0.093,-0.102 ± 0.12
AGACAGCAAUAUUACGUAAA,-2.15 ± 0.072,-1.05 ± 0.08
AGACAGCAAUAUUACGUGAG,-1.67 ± 0.056,-0.569 ± 0.087
AGACAGCAAUAUUACGUGUA,-1.89 ± 0.078,-1.61 ± 0.069
AGAGAGCAAUAUUACGAACA,-2.8 ± 0.36,-2.84 ± 0.31
AGAGAGCAAUAUUACGACAU,-2.476 ± 0.019,-1.94 ± 0.037
AGAGAGCAAUAUUACGACCG,-2.92 ± 0.4,–
AGAGAGCAAUAUUACGACGA,–,-1.61 ± 0.29
AGAGAGCAAUAUUACGACGU,-1.84 ± 0.15,-0.382 ± 0.15
AGAGAGCAAUAUUACGAUGG,-4.56 ± 0.36,-1.17 ± 0.29
AGAGAGCAAUAUUACGCCGA,–,-1.55 ± 0.43
AGAGAGCAAUAUUACGCUGC,-2.3 ± 0.23,-2.63 ± 0.34
AGAGAGCAAUAUUACGGCAG,-1.51 ± 0.24,-1.42 ± 0.43
AGAGAGCAAUAUUACGUAGU,-3.49 ± 0.3,-2.47 ± 0.26
AGAGAGCAAUAUUACGUCCG,–,-1.63 ± 0.33
AGAGAGCAAUAUUACGUGUC,–,-2.33 ± 0.37
AGAGAGCAAUAUUACGUUCG,-2.2 ± 0.16,-2.07 ± 0.23
AGAUAGCAAUAUUACGAAAA,-2.71 ± 0.24,-2.12 ± 0.22
AGAUAGCAAUAUUACGACAG,-2.26 ± 0.15,-0.465 ± 0.18
AGAUAGCAAUAUUACGACCU,0.592 ± 0.11,0.469 ± 0.15
AGAUAGCAAUAUUACGAUUC,-1.7 ± 0.12,-0.442 ± 0.16
AGAUAGCAAUAUUACGCAAA,-2.81 ± 0.23,-1.75 ± 0.24
AGAUAGCAAUAUUACGCAUC,-1.84 ± 0.3,-1.91 ± 0.36
AGAUAGCAAUAUUACGCCCA,-1.03 ± 0.21,-0.502 ± 0.23
AGAUAGCAAUAUUACGCCUU,-0.881 ± 0.09,-0.255 ± 0.11

Sequence,self-splicing fitness (ln) (30 °C),self-splicing fitness (ln) (37 °C)
AGAUAGCAAUAUUACGCGCG,0.343 ± 0.18,-0.618 ± 0.2
AGAUAGCAAUAUUACGCGGU,-2.93 ± 0.17,-2.28 ± 0.15
AGAUAGCAAUAUUACGGAAU,-2.07 ± 0.15,-0.731 ± 0.14
AGAUAGCAAUAUUACGGAUC,-1.92 ± 0.21,-0.641 ± 0.2
AGAUAGCAAUAUUACGGCCU,-0.604 ± 0.11,0.606 ± 0.14
AGAUAGCAAUAUUACGGCGC,-1.32 ± 0.14,-0.0937 ± 0.15
AGAUAGCAAUAUUACGUAUA,-1.91 ± 0.19,-2.27 ± 0.28
AGAUAGCAAUAUUACGUCUA,-0.934 ± 0.24,-0.474 ± 0.2
AGAUAGCAAUAUUACGUGCA,-0.725 ± 0.13,-0.616 ± 0.15
AGAUAGCAAUAUUACGUGCC,-0.685 ± 0.2,-0.528 ± 0.22
AGAUAGCAAUAUUACGUGUU,-2.97 ± 0.13,-1.1 ± 0.11
AGCAAGCAAUAUUACGAAGA,-3.3 ± 0.31,-1.74 ± 0.15
AGCAAGCAAUAUUACGAAUU,-2.55 ± 0.08,-1.68 ± 0.09
AGCAAGCAAUAUUACGACGC,-1.09 ± 0.11,0.048 ± 0.12
AGCAAGCAAUAUUACGACGU,-0.267 ± 0.075,0.91 ± 0.093
AGCAAGCAAUAUUACGAGAC,-4.19 ± 0.36,-2.81 ± 0.21
AGCAAGCAAUAUUACGAGCA,-0.456 ± 0.14,-0.101 ± 0.14
AGCAAGCAAUAUUACGAGCU,-3.42 ± 0.17,-2.15 ± 0.21
AGCAAGCAAUAUUACGAGUG,-1.15 ± 0.051,-0.683 ± 0.06
AGCAAGCAAUAUUACGAUUA,-1.56 ± 0.093,-0.818 ± 0.081
AGCAAGCAAUAUUACGCAAG,-2.4 ± 0.2,-2.11 ± 0.26
AGCAAGCAAUAUUACGCAUC,-2.72 ± 0.093,-3.73 ± 0.24
